Measurements taken from patent US20170313781A1 (IMMUNOMEDICS, published 2017).
Read-outs that look alike come from different tables or passages of the source. Blank lines part the entries; values can stand above or below the molecule they belong to.

Tests used:
[1] = biological target: human Trop-2 on the surface of human tumor cells (human) (UniProt P09758); test: cell binding on NCI-N87 cells, anti-mouse-HRP, luminescence
[2] = biological target: human Trop-2 on the surface of human tumor cells (human) (UniProt P09758); test: cell binding on NCI-N87 cells, Bmax compared to RS7
[3] = biological target: rhTrop-2/TACSTD2 (Sino Biological, Inc.) immobilized on a CM5 sensor chip (human) (UniProt P09758); test: SPR (BIACORE), Trop-2 chip
[4] = biological target: rhTrop-2/TACSTD2 (Sino Biological, Inc.) immobilized on a CM5 sensor chip (human) (UniProt P09758); test: SPR (BIACORE), low-density recombinant human Trop-2 chip, three runs
[5] = biological target: recombinant human neonatal receptor (FcRn) (human) (UniProt P55899); test: SPR (BIACORE), low-density FcRn chip, three runs, 400 to 25 nM
[6] = biological target: human Trop-2 on the surface of human tumor cells (human) (UniProt P09758); test: cell binding assay
[7] = biological target: recombinant human neonatal receptor (FcRn) (human) (UniProt P55899); test: SPR (BIACORE), FcRn chip
[8] = biological target: human Trop-2 on the surface of human tumor cells (human) (UniProt P09758); test: cell-based or functional assay
[9] = biological target: T1, human Trop-2 on the surface of human tumor cells (human, UniProt P09758 27-323); test: cell binding on NCI-N87 cells, anti-mouse-HRP, luminescence
T1 construct: whole, on cells; also called EGP-1; TACSTD2
T1 sequence (looked up): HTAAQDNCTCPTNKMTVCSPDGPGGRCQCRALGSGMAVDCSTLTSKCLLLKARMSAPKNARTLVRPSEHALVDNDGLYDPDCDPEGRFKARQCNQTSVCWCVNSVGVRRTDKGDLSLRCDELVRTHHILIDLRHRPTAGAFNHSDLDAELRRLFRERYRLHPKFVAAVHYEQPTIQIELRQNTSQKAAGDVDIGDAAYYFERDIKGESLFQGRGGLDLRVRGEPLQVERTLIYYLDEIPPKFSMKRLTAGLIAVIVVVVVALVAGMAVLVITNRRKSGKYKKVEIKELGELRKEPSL

[10] = biological target: human Trop-2 on the surface of human tumor cells (human) (UniProt P09758); test: cell-based or functional assay; remark: listed apart in the source
[11] = biological target: recombinant human Trop-2 with a His-tag (Sino Biological, Cat#10428-H09H) (human) (UniProt P09758); test: ELISA on Ni-NTA strips coated with recombinant His-tagged human Trop-2

Kd [1]: 0.52 nM
maximum binding (Bmax) (relative luminescent units) [1]: 8470
reduction of Bmax against RS7 [2]: 25%
Molecule: 162-46.2 murine monoclonal antibody against human Trop-2

Kd [9]: 0.57 nM
B1: murine RS7 anti-Trop-2 monoclonal antibody (antibody, V domains shown)
VH: VKLQESGPELKKPGETVKISCKASGYTFTNYGMNWVKQAPGKGLKWMGWINTYTGEPTYTDDFKGRFAFSLETSATTAYLQINNLKSEDMATYFCARGGFGSSYWYFDVWGQGTTVTVSS
VL: DIQLTQSHKFMSTSVGDRVSITCKASQDVSIAVAWYQQKPGQSPKLLIYSASYRYTGVPDRFTGSGSGTDFTFTISSVQAEDLAVYYCQQHYITPLTFGAGTKLELK

Continued, molecule first:

Molecule: MAB650 murine monoclonal antibody against human Trop-2 (R&D Systems)
Kd [1]: 0.49 nM
maximum binding (Bmax) (relative luminescent units) [1]: 6020
reduction of Bmax against RS7 [2]: 50%

Molecule: sacituzumab govitecan (IMMU-132, hRS7-CL2A-SN-38) (antibody)
fold improvement of KD against naked hRS7 [3]: 2 fold
Kd [4]: 0.26 nM
Kd [5]: 192 nM
Kd [6]: 1.2 nM
fold decrease in fold change of average binding level (reference not named; the comparison in paragraph 543 is with hRS7) [7]: 2 fold
ADCC, percent specific lysis of MDA-MB-468 cells (LDH release, E:T 50:1, 33.3 nM) [8]: 8.6%
median fluorescence intensity of anti-rH2AX-AF488 staining (dsDNA breaks), HCC1806 (Trop-2+) cells [8]: 546 MFI
γH2AX induction in BxPC-3 cells, Mean Fluorescence Intensity [8]: 5350 MFI
γH2AX induction in BxPC-3 cells, Percent Positive [8]: 69%

B2: humanized RS7 (hRS7) anti-Trop-2 IgG (antibody, INN chains, looked up, V domains shown)
VH: QVQLQQSGSELKKPGASVKVSCKASGYTFTNYGMNWVKQAPGQGLKWMGWINTYTGEPTYTDDFKGRFAFSLDTSVSTAYLQISSLKADDTAVYFCARGGFGSSYWYFDVWGQGSLVTVSS
VL: DIQLTQSPSSLSASVGDRVSITCKASQDVSIAVAWYQQKPGKAPKLLIYSASYRYTGVPDRFSGSGSGTDFTLTISSLQPEDFAVYYCQQHYITPLTFGAGTKVEIK
Kd [4]: 0.51 nM
Kd [5]: 92.4 nM
ADCC, percent specific lysis of BxPC-3 cells (PBMC effectors, E:T 100:1, 33.3 nM) [10]: 8.5%
ADCC, percent specific lysis of MDA-MB-468 cells (LDH release, E:T 50:1, 33.3 nM) [10]: 29.8%
Kd [11]: 0.3 nM

B3: hRS7-CL2-SN-38 (antibody, INN chains, looked up, V domains shown)
VH: B2 VH
VL: B2 VL
modifications: SN-38 via CL2 linker
Kd [6]: 1.2 nM
